Results as given in patent US20220136002A1 (JACKSON LABORATORY, published 2022).

Molecular target: T1, mouse FLT3 receptor (mouse, UniProt Q00342 28-1000)
T1 construct: whole, on cells; Endogenous receptor of the NSG host mouse, knocked out in the NSG Flt3null-Tg(Hu-FLT3L) line; also called CD135
T1 sequence (looked up): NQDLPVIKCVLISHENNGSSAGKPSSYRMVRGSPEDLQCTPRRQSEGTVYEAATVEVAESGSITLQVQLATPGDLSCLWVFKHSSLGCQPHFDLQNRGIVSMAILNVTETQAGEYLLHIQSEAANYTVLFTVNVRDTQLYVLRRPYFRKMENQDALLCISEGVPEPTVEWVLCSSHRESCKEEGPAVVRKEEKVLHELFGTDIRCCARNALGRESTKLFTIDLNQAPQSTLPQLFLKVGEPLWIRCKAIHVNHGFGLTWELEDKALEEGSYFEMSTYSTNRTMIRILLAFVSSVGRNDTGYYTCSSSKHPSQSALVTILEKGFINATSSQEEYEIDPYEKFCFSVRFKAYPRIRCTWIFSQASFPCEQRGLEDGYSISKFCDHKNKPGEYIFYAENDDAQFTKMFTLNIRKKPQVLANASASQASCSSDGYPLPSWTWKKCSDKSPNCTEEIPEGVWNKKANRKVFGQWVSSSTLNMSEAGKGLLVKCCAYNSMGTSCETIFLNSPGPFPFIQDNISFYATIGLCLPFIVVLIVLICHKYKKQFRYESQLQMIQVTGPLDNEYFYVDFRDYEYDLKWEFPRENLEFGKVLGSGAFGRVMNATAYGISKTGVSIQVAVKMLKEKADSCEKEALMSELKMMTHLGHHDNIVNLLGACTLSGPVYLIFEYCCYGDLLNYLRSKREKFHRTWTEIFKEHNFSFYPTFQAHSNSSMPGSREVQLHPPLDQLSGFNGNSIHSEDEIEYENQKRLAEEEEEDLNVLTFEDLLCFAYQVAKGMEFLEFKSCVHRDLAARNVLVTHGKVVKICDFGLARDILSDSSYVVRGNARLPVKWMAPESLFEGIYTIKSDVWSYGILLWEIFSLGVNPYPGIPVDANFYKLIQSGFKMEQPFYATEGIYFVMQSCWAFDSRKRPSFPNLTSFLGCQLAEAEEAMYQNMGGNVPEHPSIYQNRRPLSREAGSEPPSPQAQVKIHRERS
Experiment: no direct binding assay; inferred from in vivo mouse genetics (human FLT3L transgenic NSG mice with and without knock-out of mouse Flt3)

binding result: binds
B1: human FLT3 ligand (FLT3L) (ligand, UniProt P49771 27-184, looked up)
chain: TQDCSFQHSPISSDFAVKIRELSDYLLQDYPVTVASNLQDEELCGGLWRLVLAQRWMERLKTVAGSKMQGLLERVNTEIHFVTKCAFQPPPSCLRFVQTNISRLLQETSEQLVALKPWITRQNFSRCLELQCQPDSSTLPPPWSPRPLEATAPTAPQP
notes: Expressed in vivo from a 13.8 kb genomic BAC fragment and circulating in mouse serum; also called Hu-FLT3L
